For one substance, reduction of binding to PLP relative to GST-LdPfn results are on record in paper doi:10.1101/2025.04.17.649292.

In this test the target is poly-L-proline (PLP) coupled to Sepharose 4B. The test can be described thus: affinity chromatography on poly-L-proline Sepharose.

In turn, “GST-δLdPfn (LdPfn with amino acids 110 to 128 deleted, N-terminal GST tag) (natural protein)” yielded a reduction of binding to PLP relative to GST-LdPfn of 30%.
